Laboratory results: patent US20230080224A1 (AGENCY FOR SCIENCE TECHNOLOGY AND RESEARCH, published 2023)
Blank lines part the entries; values can stand above or below the binder they belong to.

Assays:
[1] = target: T1, human ALPPL2 (recombinant protein) (human, UniProt P10696 20-503, limits assumed); test: SPR, Biacore T200, ligand captured by streptavidin on CM5 chip, antibody as analyte
T1 construct: biotinylated where captured on streptavidin
Protocol: Select clones (C4, C15, C131, C12, C18, C36 and C53) were humanized by grafting the CDRs to a human IgG1 framework. […] Surface plasmon resonance was studied using Biacore T200. Ligands (e.g. ALPPL2 or ALPP) were immobilized on biosensors CM5 chips captured with the streptavidin. Ligands-loaded sensors were then incubated with different concentrations of analyte (recombinant expressed humanized antibody clones) to measure affinity.

[2] = target: human ALPP (recombinant protein) (human, UniProt P05187 23-506, limits assumed); test: biolayer interferometry, biotinylated ligand on SA biosensors (FIG. 12G)
Protocol: Chimerized C53 is also cross-reactive towards rhesus macaque ortholog. Binding affinity of humanized C53 as compared to humanized C36 to ALPPL and ALPP was performed using Biolayer Interferometry. In this technique, biotinylated ligands (i.e. ALPPL2 or ALPP) were immobilized on SA biosensors. Ligands-loaded sensors were then incubated with different concentrations of analyte (recombinantly expressed humanized antibody clones) in the buffer.

[3] = target: T2, human ALPI expressed on cells (human, UniProt P09923 20-503); test: FACS on transiently transfected 293T cells (FIG. 13A)
T2 construct: whole, on cells
T2 sequence (looked up): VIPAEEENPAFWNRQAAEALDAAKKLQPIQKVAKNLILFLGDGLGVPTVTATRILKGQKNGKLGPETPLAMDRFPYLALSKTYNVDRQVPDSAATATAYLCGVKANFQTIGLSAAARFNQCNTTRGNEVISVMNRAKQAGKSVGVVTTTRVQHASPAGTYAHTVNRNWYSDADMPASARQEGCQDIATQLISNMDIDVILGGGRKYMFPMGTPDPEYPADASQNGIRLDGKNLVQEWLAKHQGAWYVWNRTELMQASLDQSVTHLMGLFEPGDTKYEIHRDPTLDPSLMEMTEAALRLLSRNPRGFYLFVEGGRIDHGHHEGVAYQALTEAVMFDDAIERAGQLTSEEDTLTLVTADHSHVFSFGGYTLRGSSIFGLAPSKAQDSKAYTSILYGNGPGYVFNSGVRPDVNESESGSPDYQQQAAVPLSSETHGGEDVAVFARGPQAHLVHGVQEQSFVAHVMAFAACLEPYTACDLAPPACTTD

[4] = target: T3, human ALPL expressed on cells (human, UniProt P05186 18-501); test: as above
T3 construct: whole, on cells
T3 sequence (looked up): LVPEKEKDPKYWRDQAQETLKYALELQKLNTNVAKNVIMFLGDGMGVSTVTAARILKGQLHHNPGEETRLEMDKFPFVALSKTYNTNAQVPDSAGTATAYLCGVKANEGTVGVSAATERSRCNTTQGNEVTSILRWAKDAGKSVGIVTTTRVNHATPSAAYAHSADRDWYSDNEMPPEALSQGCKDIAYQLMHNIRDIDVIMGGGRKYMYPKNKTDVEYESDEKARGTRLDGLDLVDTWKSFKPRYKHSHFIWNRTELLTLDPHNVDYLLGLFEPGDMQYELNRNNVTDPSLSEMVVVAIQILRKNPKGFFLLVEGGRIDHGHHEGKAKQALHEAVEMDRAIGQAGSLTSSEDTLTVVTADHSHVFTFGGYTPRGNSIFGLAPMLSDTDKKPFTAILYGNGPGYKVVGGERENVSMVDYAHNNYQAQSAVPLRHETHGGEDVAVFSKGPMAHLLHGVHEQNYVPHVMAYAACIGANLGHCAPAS

[5] = target: T4, human ALPP expressed on cells (human, UniProt P05187 23-506); test: as above
T4 construct: whole, on cells

[6] = target: T5, human ALPPL2 (recombinant protein) (human, UniProt P10696 20-503); test: BLI
T5 chain: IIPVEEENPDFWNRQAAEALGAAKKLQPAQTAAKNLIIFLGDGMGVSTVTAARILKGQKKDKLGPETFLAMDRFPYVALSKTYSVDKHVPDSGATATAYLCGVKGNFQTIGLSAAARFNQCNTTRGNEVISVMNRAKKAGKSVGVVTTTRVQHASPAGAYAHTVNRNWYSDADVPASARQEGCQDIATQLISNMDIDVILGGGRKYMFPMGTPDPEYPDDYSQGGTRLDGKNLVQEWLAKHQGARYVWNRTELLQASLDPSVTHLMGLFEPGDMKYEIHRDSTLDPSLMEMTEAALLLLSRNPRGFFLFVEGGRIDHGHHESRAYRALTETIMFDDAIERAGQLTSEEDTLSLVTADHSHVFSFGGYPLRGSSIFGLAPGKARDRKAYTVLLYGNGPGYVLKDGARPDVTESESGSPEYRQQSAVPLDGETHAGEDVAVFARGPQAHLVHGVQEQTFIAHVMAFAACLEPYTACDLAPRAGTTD

[7] = target: T6, human ALPPL2 expressed on cells (human, UniProt P10696 20-503); test: FACS (FIG. 13)
T6 construct: whole, on cells; also called placental-like alkaline phosphatase

[8] = target: T5, human ALPPL2 (recombinant protein); test: BLI; single concentration
[9] = target: T6, human ALPPL2 expressed on cells; test: FACS (FIG. 12A)
[10] = target: T4, human ALPP expressed on cells; test: FACS (FIG. 12A)
[11] = target: T1, human ALPPL2 (recombinant protein); test: screen of rabbit B-cell clones by ELISA and FACS
Text: (§1) Specific clones were screened and identified by ELISA and high throughput flow cytometry (FIG. 3). Rabbit kidney cells were transfected with either truncated (for ELISA screen) or full-length (for FACS screen) ALPI and ALPPL2.

[12] = target: T7, ALPI (screening and SPR/ELISA protein) (UniProt P09923 20-503, limits assumed); test: screen of rabbit B-cell clones by ELISA and FACS
T7 sequence (looked up): T2 sequence (looked up)
Text: as §1

T4 sequence (P05187 23-506): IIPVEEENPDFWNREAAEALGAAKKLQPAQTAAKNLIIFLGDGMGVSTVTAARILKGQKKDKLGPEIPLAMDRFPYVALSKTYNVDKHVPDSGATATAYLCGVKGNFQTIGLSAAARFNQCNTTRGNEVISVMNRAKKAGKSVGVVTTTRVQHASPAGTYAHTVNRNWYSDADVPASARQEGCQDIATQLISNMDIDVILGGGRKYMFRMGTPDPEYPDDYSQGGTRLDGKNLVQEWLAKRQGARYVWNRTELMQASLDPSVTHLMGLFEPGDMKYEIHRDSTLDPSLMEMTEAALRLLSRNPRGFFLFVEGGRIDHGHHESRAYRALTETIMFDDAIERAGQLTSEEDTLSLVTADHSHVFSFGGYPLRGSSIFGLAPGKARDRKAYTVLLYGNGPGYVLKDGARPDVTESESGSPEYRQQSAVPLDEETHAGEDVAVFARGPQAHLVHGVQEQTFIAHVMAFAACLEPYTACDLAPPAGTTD
Sequence of human ALPP (recombinant protein) (P05187 23-506 limits assumed): as the sequence (P05187 23-506) above

binding result [1]: binds
binding result [2]: no binding
binding result [3]: no binding
binding result [4]: no binding
binding result [5]: no binding
Kd [6]: 1000 pM
binding result [7]: binds
B1: humanized C53 (antibody, human IgG1, V domains shown)
VH: EVQLVESGGGLVQPGGSLRLSCAASGFSFSSGYDMCWVRQAPGKGLEWIACIHSSSGTTYYASWAKGRFTISRDNSKNTLYLQMNSLRAEDTAVYYCARDFSYTDDYISYVYATDLWGQGTLVTVSS
VL: DIQMTQSPSSLSASVGDRVTITCQASQSIGSSLAWYQQKPGKVPKLLIYAASYLASGVPSRFSGSGSGTDFTLTISSLQPEDVATYYCQSTYYSSSTDIRAFGQGTKVEIK
notes: CDRs grafted to a human IgG1 framework; recombinant; also called hC53

Kd [8]: 1 pM
binding result [9]: binds
binding result [10]: binds
binding result [11]: binds
binding result [12]: no binding
B2: AB1C4 (antibody, V domains shown)
VH: QSLEESGGDLVKPGPSLTLTCKASGFTISNNYWICWVRQAPGKGLEWIGCIATGDGSTYYASWAKGRFTISKTSSTTVTLQMTSLTAADTATYFCARGAAGSSWTTYFDFWGPGTPVTVSS
VL: DIVMTQTPASVEAAVGGTVTIKCQAGQNIDNYLSWYQQKPGQPPKLLIYRASTLASGVPSRFKGSGSGTEFTLTISDLECADAATYYCQNNNGGSTFTGFPFGGGTEVVVK
notes: Rabbit antibody cloned from a single B cell; also called rabbit C4
